The record followed here is patent publication US20160058881A1, “PRODRUGS WITH PROLONGED ACTION” (INDIANA UNIVERSITY RESEARCH AND TECHNOLOGY CORPORATION, priority 2013, published 2016).

The format of data set [1] is physicochemical. The note with it: buffer. As to the method: Preliminary analyses were performed with these crude peptides for an approximation of their relative conversion rates in Phosphate Buffered Saline (PBS) buffer (pH, 7.2) using high performance liquid chromatography (HPLC) and MALDI analysis. The crude peptide samples were dissolved in the PBS buffer at a concentration of 1 mg/mL. […] Aliquots of 100 μL were drawn out at various time intervals, cooled to room temperature and analyzed by HPLC. […] The peptides described above were incubated in PBS buffer or serum at 37° C. for up to 8 days. Samples were collected at different time points for PBS and plasma and half-life was determined. […] The peptides described above were incubated in PBS buffer or serum at 37° C. for up to 8 days. Samples were collected at different time points for PBS and plasma and half-life was determined. […] The shorter half-life seen when the acylated dipeptide was linked to […] might be due to a conformational change that facilitates cleavage when bound to plasma or alternatively to reduced detection of the acylated form when bound to plasma.

The format of data set [2] is in vitro ADME. As for the experimental part: The peptides described above were incubated in PBS buffer or serum at 37° C. for up to 8 days. Samples were collected at different time points for PBS and plasma and half-life was determined. […] The peptides described above were incubated in PBS buffer or serum at 37° C. for up to 8 days. Samples were collected at different time points for PBS and plasma and half-life was determined. […] The shorter half-life seen when the acylated dipeptide was linked to […] might be due to a conformational change that facilitates cleavage when bound to plasma or alternatively to reduced detection of the acylated form when bound to plasma.

The test system of data set [3] is diet induced obesity (DIO) mice. In words: In vivo effects in DIO mice, single injection (Example 4). Details: species or system mice (strain: C57B16). The note with it: single s.c. injection, lower dose (10 nmol/kg), Day 0-5. As to the method: The Peptide D prodrug described in Example 3 was tested for its in vivo effects in diet induced obesity (DIO) mice (strain: C57B16). Nine groups of eight mice (with an initial average body weight of 50 g) were subcutaneously injected with vehicle only or 10 nmol/kg or 50 nmol/kg of a Peptide D acylated prodrug of Example 3, the parent peptide (i.e., Peptide D lacking an acylated dipeptide prodrug moiety), Peptide D with an acylated lysine residue linked directly the 4-amino phenylalanine at position 10, or the following peptide: YAib[…](γEγE-C16)[…]ib[…] (SEQ ID NO: 3082) (Peptide F). The mice were 6 months old and had been on a high fat diet for approximately 2 months. Body weight was monitored for a week following injection and was measured on Day 0, 1, 2, and 5, wherein Day 0 was the day of injection (FIG. 2).

For data set [4] the test system is unchanged. Nature of the data set: In vivo effects of acyl chain length variants in DIO mice, single injection (Example 5). On the set-up: species or system mice (strain: C57B16). The note with it: single s.c. injection, 10 nmol/kg, Day 0-7. As for the experimental part:
The Peptide D variants described above were also tested for their in vivo effects in diet induced obesity (DIO) mice (strain: C57B16). Nine groups of eight mice (with an initial average body weight of 50 g) were subcutaneously injected with vehicle only, or 10 nmol/kg of a Peptide D with C18 acylation via the dipeptide prodrug moiety (as described in Example 3), the parent peptide (i.e., Peptide D lacking acylation and lacking a dipeptide prodrug moiety), Peptide D with a C18 acyl group linked directly to the 4-amino phenylalanine at position 10, a Peptide D with C20 acylation via the dipeptide prodrug moiety, Peptide D with a C20 acyl group linked directly to the 4-amino phenylalanine at position 10, a Peptide D with C22 acylation via the dipeptide prodrug moiety, and Peptide D with a C22 acyl group linked directly to the 4-amino phenylalanine at position 10. The mice were 6 months old and had been on a high fat diet for approximately 2 months. Body weight was monitored for a week following injection and was measured on Day 0, 1, 2, 5, and 7 wherein Day 0 was the day of injection (FIG. 3A, 3B).

The target in data set [5] is T1, GLP-1 receptor (Homo sapiens, UniProt P43220). In words: cell-based or functional assay.
Target sequence in this assay (P43220 24-463 limits assumed): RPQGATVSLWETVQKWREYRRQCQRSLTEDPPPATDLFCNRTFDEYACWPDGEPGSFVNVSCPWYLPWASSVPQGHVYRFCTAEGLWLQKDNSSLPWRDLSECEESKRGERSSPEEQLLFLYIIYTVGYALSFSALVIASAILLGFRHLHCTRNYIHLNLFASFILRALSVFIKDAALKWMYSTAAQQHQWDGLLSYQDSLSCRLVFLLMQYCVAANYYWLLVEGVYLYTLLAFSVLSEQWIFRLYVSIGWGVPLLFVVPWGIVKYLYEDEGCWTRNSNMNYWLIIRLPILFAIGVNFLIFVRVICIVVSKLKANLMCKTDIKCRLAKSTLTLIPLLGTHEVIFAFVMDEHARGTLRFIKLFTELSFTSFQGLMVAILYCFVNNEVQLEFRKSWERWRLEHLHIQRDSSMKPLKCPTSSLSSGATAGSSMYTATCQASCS
Data set [6] has as its target glucagon receptor (UniProt P47871). In words: cell-based or functional assay.
Data set [7] has as its target T1, GLP-1 receptor. In words: cell-based or functional assay. The source holds these as a separate data set.
Target sequence in this assay (P43220 24-463 limits assumed): as above
The target of data set [8] is glucagon receptor (UniProt P47871). Nature of the data set: cell-based or functional assay. The source holds these as a separate data set.
Chain of glucagon receptor (UniProt P47871) (P47871 26-477 limits assumed): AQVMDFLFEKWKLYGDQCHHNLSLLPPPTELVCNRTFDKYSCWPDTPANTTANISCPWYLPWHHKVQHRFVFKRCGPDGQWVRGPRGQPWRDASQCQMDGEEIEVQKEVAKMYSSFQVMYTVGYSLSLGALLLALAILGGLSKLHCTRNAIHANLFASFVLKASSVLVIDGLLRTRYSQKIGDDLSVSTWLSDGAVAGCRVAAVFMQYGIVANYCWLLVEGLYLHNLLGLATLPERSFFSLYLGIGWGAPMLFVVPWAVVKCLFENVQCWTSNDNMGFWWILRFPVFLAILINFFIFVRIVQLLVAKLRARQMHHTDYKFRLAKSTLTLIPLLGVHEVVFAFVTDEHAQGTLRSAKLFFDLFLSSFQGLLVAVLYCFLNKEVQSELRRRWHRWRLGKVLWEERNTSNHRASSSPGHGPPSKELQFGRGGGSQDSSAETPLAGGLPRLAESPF
Data set [9] deals with T1, GLP-1 receptor. Nature of the data set: GLP-receptor luciferase bioassay of samples incubated in 20% human plasma (restored activity). It is filed as cell-based. The note with it: 37° C., 0 to 5 d. As for the experimental part:
To explore the possible formation of DKP and simultaneous regeneration of the parent drug, the above-mentioned peptides were incubated in 20% human plasma at 37° C. for approximately 5 days. Samples were collected at different time points (0, 1, 2, and 5 days).
Target sequence in this assay (P43220 24-463): as the sequence (P43220 24-463 limits assumed) above

The test system of data set [10] is diet induced obesity (DIO) mice. In words: In vivo effects of daily prodrug injection in DIO mice (Example 6). The note with it: s.c. daily for 5 days, 10 nmol/kg, after last injection on day 4 to day 7. On the set-up: species or system mice (strain: C57B16). As for the experimental part:
C22 acylated versions of Peptide D were also tested for their in vivo effects in diet induced obesity (DIO) mice (strain: C57B16) following daily administrations. Nine groups of eight mice (with an initial average body weight of 65 g) were subcutaneously injected daily for 5 days with vehicle only or 3 nmol/kg or 10 nmol/kg of Peptide D (parent peptide), a Peptide D with C22 acylation via the prodrug dipeptide moiety and Peptide D with a C22 acyl group linked directly to the 4-amino phenylalanine at position 10. The mice were 11 months old and had been on a high fat diet for approximately 2 months. Body weight was monitored for a week following injection and was measured on Day 0, 1, 2, 3, 4 and 7, wherein Day 0 was the day of injection (FIG. 4A, 4B).

Data set [11] deals with T2, GLP-1 receptor (UniProt P43220 24-463, limits assumed). In words: cell-based or functional assay.
The next data set concerns the target T3, GIP receptor (UniProt P48546 22-466).
T3 sequence (looked up): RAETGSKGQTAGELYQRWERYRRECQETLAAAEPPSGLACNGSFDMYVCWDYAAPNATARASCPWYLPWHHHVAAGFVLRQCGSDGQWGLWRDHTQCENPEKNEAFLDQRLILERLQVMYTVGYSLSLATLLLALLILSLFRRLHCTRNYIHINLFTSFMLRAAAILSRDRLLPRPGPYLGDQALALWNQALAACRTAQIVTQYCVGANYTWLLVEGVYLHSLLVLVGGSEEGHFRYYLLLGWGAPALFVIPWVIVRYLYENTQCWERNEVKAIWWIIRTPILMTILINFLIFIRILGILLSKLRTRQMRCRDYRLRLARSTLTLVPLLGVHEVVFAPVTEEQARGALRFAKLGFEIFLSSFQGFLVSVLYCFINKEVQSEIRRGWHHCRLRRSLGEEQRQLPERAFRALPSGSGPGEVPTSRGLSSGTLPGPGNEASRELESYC
In words: cell-based or functional assay.

The target of data set [12] is T2, GLP-1 receptor. In words: cell-based or functional assay. This is another data set of the same source.
The target in data set [13] is T4, glucagon receptor (UniProt P47871 26-477, limits assumed). Nature of the data set: cell-based or functional assay.
T4 sequence (P47871 26-477 limits assumed): as the sequence (P47871 26-477 limits assumed) above
Data set [14] has as its target T4, glucagon receptor. Nature of the data set: cell-based or functional assay. This is another data set of the same source.
Data set [15] has as its target T2, GLP-1 receptor. Nature of the data set: cell-based or functional assay. This is another data set of the same source.

Read-outs that look alike come from different tables or passages of the source. Positions of bridges follow the written chain, without caps; N, C: chain ends. Non-standard residues stand in square brackets, D forms with d. Residues, ends and D or L forms follow the SMILES beside them. Groups on a side chain read outwards from the residue. No end group written: not given here. *: point of attachment. Docosanoyl = CCCCCCCCCCCCCCCCCCCCCC(=O)*; Phe(4-NH2) = Nc1ccc(C[C@H](N)C(=O)O)cc1; PhLac = O=C(O)[C@@H](O)Cc1ccccc1; Aib = CC(C)(N)C(=O)O; Sar = CNCC(=O)O

Broadly, the half-life is the time needed for the level to fall by half in the phase considered. A higher half-life goes with slow decline.

For `CC[C@H](C)[C@H](NC(=O)[C@H](CO)NC(=O)[C@H](Cc1ccc(N)cc1)NC(=O)[C@H](CC(=O)O)NC(=O)[C@H](CO)NC(=O)[C@@H](NC(=O)[C@H](Cc1ccccc1)NC(=O)[C@@H](NC(=O)CNC(=O)[C@H](CCC(=O)O)NC(=O)C(C)(C)NC(=O)[C@@H](N)Cc1ccccc1)[C@@H](C)O)[C@@H](C)O)C(=O)N[C@@H](Cc1ccc(O)cc1)C(=O)N[C@@H](CC(C)C)C(=O)N[C@@H](CC(=O)O)C(=O)N[C@@H](CCCCN)C(=O)N[C@@H](CCC(N)=O)C(=O)N[C@@H](C)C(=O)N[C@@H](C)C(=O)NC(C)(C)C(=O)N[C@@H](CCC(=O)O)C(=O)N[C@@H](Cc1ccccc1)C(=O)N[C@H](C(=O)N[C@@H](CC(N)=O)C(=O)N[C@@H](Cc1c[nH]c2ccccc12)C(=O)N[C@@H](CC(C)C)C(=O)N[C@@H](CC(C)C)C(=O)N[C@@H](C)C(=O)NCC(=O)NCC(=O)N1CCC[C@H]1C(=O)N[C@@H](CO)C(=O)N[C@@H](CO)C(=O)NCC(=O)N[C@@H](C)C(=O)N1CCC[C@H]1C(=O)N1CCC[C@H]1C(=O)N1CCC[C@H]1C(=O)N[C@@H](CO)C(N)=O)C(C)C` [Peptide D] (H-F[Aib]EGTFTSD[Phe(4-NH2)]SIYLDKQAA[Aib]EFVNWLLAGGPSSGAPPPS-NH2; N-terminus and C-terminus assumed), the half-life in data set [1] and in [2] was roughly 24 h in each case. Besides, the results for the Body weight entry in data set [3] and in data set [4] were “decline in weight through day 2 before weight began to increase slightly” and “caused the most weight loss”, respectively.

In the case of “D9, K12E16(Lactam) glucagon(6-39) Cex peptide (Table 1 peptide 4)”, the GLP-1 EC50 with GLP-1 receptor [5] came out at 18 nM; with GLP-1 receptor [7] it was 119 nM. The Glucagon IC50 with glucagon receptor [6] was found to be 828 nM. Further, in the data set with glucagon receptor [8], the Glu IC50 turned out to be 828 nM.

Take “E9, K12E16(lactam) glucagon(6-39) Cex peptide (Table 1 peptide 2)”: in the data set with glucagon receptor [6], the Glucagon IC50 is 2010 nM. In the data set with GLP-1 receptor [7], this molecule gave a GLP-1 EC50 of 63 nM. In the data set with glucagon receptor [8], the Glu IC50 stood at 2010 nM.

“FAibEGTFTSDF(NH2)SIYLDKQAAAibEFVNWLLAGGPSSGAPPPS (F[Aib]EGTFTSD[Phe(4-NH2)]SIYLDKQAA[Aib]EFVNWLLAGGPSSGAPPPS-NH2; N-terminus assumed; SMILES CC[C@H](C)[C@H](NC(=O)[C@H](CO)NC(=O)[C@H](Cc1ccc(N)cc1)NC(=O)[C@H](CC(=O)O)NC(=O)[C@H](CO)NC(=O)[C@@H](NC(=O)[C@H](Cc1ccccc1)NC(=O)[C@@H](NC(=O)CNC(=O)[C@H](CCC(=O)O)NC(=O)C(C)(C)NC(=O)[C@@H](N)Cc1ccccc1)[C@@H](C)O)[C@@H](C)O)C(=O)N[C@@H](Cc1ccc(O)cc1)C(=O)N[C@@H](CC(C)C)C(=O)N[C@@H](CC(=O)O)C(=O)N[C@@H](CCCCN)C(=O)N[C@@H](CCC(N)=O)C(=O)N[C@@H](C)C(=O)N[C@@H](C)C(=O)NC(C)(C)C(=O)N[C@@H](CCC(=O)O)C(=O)N[C@@H](Cc1ccccc1)C(=O)N[C@H](C(=O)N[C@@H](CC(N)=O)C(=O)N[C@@H](Cc1c[nH]c2ccccc12)C(=O)N[C@@H](CC(C)C)C(=O)N[C@@H](CC(C)C)C(=O)N[C@@H](C)C(=O)NCC(=O)NCC(=O)N1CCC[C@H]1C(=O)N[C@@H](CO)C(=O)N[C@@H](CO)C(=O)NCC(=O)N[C@@H](C)C(=O)N1CCC[C@H]1C(=O)N1CCC[C@H]1C(=O)N1CCC[C@H]1C(=O)N[C@@H](CO)C(N)=O)C(C)C) [Parent peptide (Peptide D), Peptide D lacking acylation and lacking a dipeptide prodrug moiety]”: the “Change of activity over the time points in plasma” value with GLP-1 receptor [9] was “No change”. Further, the Body weight entry in data set [3] is listed as “declined through day 1, but returned close to the starting weight by day 5”; in data set [10], “began gaining weight”; in [4] it was “declined through day 1, but returned toward the starting weight by day 7”.

On to Y[Aib]EGTFTSDYSIYLDKQAA[Aib]EFVNWLLAGGPSSGAPPPSK([Sar-dK-Docosanoyl])-NH2 [Peptide H with C22-acylated (d)Lysine-sarcosine dipeptide on Lysine at position 40], for which the “EC50-GLP, relative activity to GLP-1 standard” value in the data set with GLP-1 receptor [11] came out at 37.1%. Besides, the “EC50-GIP, relative activity to GIP standard” value in the data set with GIP receptor was determined as 81.6%.

Take [PhLac]TSDYSKYLDERRAKDFVQWLMDT (lactam 11-15) [[PLA6, D9, E16K20(lactam), D28]G(6-29) (Table 2 peptide 1)]: the “GLP-1 EC50” value with GLP-1 receptor [12] came out at 4 nM. Further, the “Glucagon IC50” value is 6 nM with glucagon receptor [13] and 10 to 30 nM with glucagon receptor [14].

Consider [PhLac]TSDYSKYLDERRAQDFVQWLMDT (lactam 7-11; not fully specified) [[PLA6, D9, K12E16(Lactam), D28]G(6-29) (Table 2 peptide 2)], for which the “GLP-1 EC50” value in the data set with GLP-1 receptor [12] stood at 21 nM; with GLP-1 receptor [15], 177 nM. Also, the “Glucagon IC50” value was determined as 13 nM in the data set with glucagon receptor [13] and 63 nM with glucagon receptor [14].
